{"source": "patent US8722622B2", "about": "“FGF21 conjugates and anti-diabetic uses thereof” (COVX Technologies Ireland, Limited, priority 2010, dated 2014)", "molecules": {"B1": {"name": "FGF21ΔH: FGF21 with H1 absent (ΔH1), L146, SEQ ID NO:2; control protein (protein, listed as Homo sapiens)", "chain": "PIPDSSPLLQFGGQVRQRYLYTDDAQQTEAHLEIREDGTVGGAADQSPESLLQLKALKPGVIQILGVKTSRFLCQRPDGALYGSLHFDPEACSFRELLLEDGYNVYQSEAHGLPLHLPGNKSPHRDPAPRGPARFLPLPGLPPAPLEPPGILAPQPPDVGSSDPLSMVGPSQGRSPSYAS"}}, "key": {"[1]": {"tested_on": "Glut1 mRNA expression in differentiated 3T3-L1 adipocytes", "assay": "Glut1 Taqman assay", "type": "cell-based", "experimental": "Differentiated 3T3-L1 adipocytes were used to measure the Glut1 mRNA expression by qPCR method. Overnight serum starved day 10-14 differentiated 3T3-L1 adipocytes were treated with compounds for 6 hrs. Total RNA was extracted from these cells, and Glut1 and GAPDH mRNA expression was measured using a Quantitect Probe RT-PCR kit and running a quantitative real time PCR reaction in a Taqman machine (Applied Biosystems®). The bioactivity of the compounds was determined by a fold change in Glut1 mRNA levels normalized by the GAPDH mRNA levels from each sample. EC50 values as measurements of the potency of the compounds were obtained from the dose response curves in the assay.\n3T3-L1 adipocytes were seeded at day 8 in 24-well tissue culture plates (Falcon®, Cat#353047), and incubated in DMEM complete medium (10% FBS, 2 mM L-glutamine, 1% P/S) at 37° C., 5% CO2. […] The medium was aspirated, and then RNA extracted from the cells using the RNeasy mini Kit according to the manufacturer's instructions. RNA was measured at A260 nm using the Spectramax® Plus spectrophotometer."}, "[2]": {"tested_on": "Differentiated 3T3-L1 adipocytes", "assay": "Glucose uptake assay", "type": "cell-based", "conditions": "unconjugated protein; n in brackets", "experimental": "Differentiated 3T3-L1 adipocytes were treated with compounds in the absence of serum for 24 hrs. Cells were then incubated with ^14C-2-deoxyglucose for 1 hr and glucose uptake into the cells was quantitated in Wallac 1450 MicroBeta (Trilux) instrument. Glucose uptake was expressed in counts per min (CPM). EC50 values as measurements of the potency of the compounds were obtained from the dose response curves in the assay."}, "ob/ob mice": {"tested_on": "ob/ob mice", "assay": "Mouse efficacy in ob/ob mice (OGTT, body weight, liver, gene expression)", "type": "in vivo", "experimental": "The efficacy of FGF21 antibodies conjugates was evaluated in two murine obese insulin resistant models—ob/ob mice and high-fat diet-induced obese mice. For both models, male mice (6-8 weeks of age for ob/ob, 12-14 weeks of age for DIO with high-fat diet initiated at 6 weeks of age) were housed 2-4/cage and FGF21 antibody conjugates were administered by SC injection. Body weight was measured daily in the morning. Glucose tolerance was assessed by oral glucose tolerance test. Briefly, mice were fasted for 4-5 hrs in the morning of the day of testing. A basal blood sample was obtained and blood glucose levels were determined using a portable glucometer. Following basal sample, glucose was administered by oral gavage, and blood samples were drawn from 15 to 120 mins thereafter.\nFor […] expression, frozen visceral WAT samples collected from the in vivo efficacy studies were homogenized. Total RNA was extracted from the tissue homogenates, and Glut1 and GAPDH mRNA expression was measured using a Quantitect Probe RT-PCR kit and running a quantitative real time PCR reaction in a Taqman machine (Applied Biosystems). The effect of treatment was determined by a fold change in Glut1 mRNA levels normalized by the GAPDH mRNA levels from each sample."}, "[3]": {"tested_on": "obese insulin resistant (pre-diabetic) cynomolgus macaques", "type": "in vivo, Macaca fascicularis", "conditions": "0.3 mg/kg QD", "experimental": "[…] adult cynomolgus monkeys (Macaca fascicularis) were included in the study. The monkeys (13 male, 11 female) were stratified into four treatment groups of 6 individuals, based on sex, body weight, and basal glycemic and lipid indices measured in a baseline plasma sample collected 2 weeks prior to the start of dosing. Animals were maintained on a high fat diet. Animals were dosed for 4 weeks followed by a 4 week washout period.\nBlood samples were collected weekly during the dosing and washout periods, with the exception that no samples were collected at week 3 of washout. After an overnight fast (16-18 h), monkeys were sedated with ketamine 10-15 mg/kg by intramuscular (IM) injection. Body weights were recorded and blood (5 mL) was collected via percutaneous femoral venipuncture into ethylenediaminetetraacetic acid (EDTA) treated Vacutainer tubes pretreated with ˜1.8 trypsin inhibitor units (TIU) Aprotinin (Sigma 0.6 TIU per mL whole blood). Tubes were immediately placed on ice. Plasma was prepared by centrifugation, with the resulting plasma aliquoted and frozen at −80° C.\nData were treated in the same way for each pharmacodynamic endpoint. The baseline value for each individual monkey was subtracted from each timepoint to give a value corresponding to change from baseline. Changes from baseline values were averaged for each timepoint in each treatment group and standard error of the mean (SEM) calculated. Results are reported as mean change from baseline±SEM for each treatment group over the timecourse of the study. […] As there was no vehicle control group for the FGF21ΔH treated animals, the raw data and not the change from baseline value was used to assess statistical significance. In this case a student's T-test (two sided, paired sample) was carried out vs. baseline. […]\nPlasma fructosamine was measured via an enzymatic colorimetric method using the Ace Alera Clinical Chemistry Analyzer using a kit from Roche Diagnostics®(Mannheim, Germany) according to manufacturer's instructions. […] Significant reduction in plasma fructosamine levels over time indicates improved glycemic control. […]\nTPC levels were measured using enzymatic methods on the Ace Alera analyzer. There was a significant decrease in TPC after 1 week of treatment in all treatment groups (FIG. 9H).\nTG levels were measured using enzymatic methods on the Ace Alera analyzer.\nNon-esterified free fatty acids (FFA) were measured using enzymatic methods on a Roche Cobas® C311 clinical chemistry analyzer using protocols and reagents from Wako® (Wako Diagnostics, Richmond, Va.) according to manufacturer's instructions.\nHDL levels were measured using enzymatic methods on the Ace Alera analyzer. There was no significant change in HDL cholesterol over the treatment period in any of the treatment groups.\nLDL levels were measured using enzymatic methods on the Ace Alera analyzer.\nTOTK were measured using enzymatic methods on a Roche Cobas® C311 clinical chemistry analyzer using protocols and reagents from Wako®.\nAdiponectin levels were determined using a Mercodia® ELISA kit.\nC-reactive protein (CRP) was measured using an ELISA kit from ALPCO Diagnostics® (Salem, N.H.) according to manufacturer's instructions. […] Levels trended back to baseline during the washout phase.\nLeptin was measured by Luminex® technology (Millipore® catalogue number HMH-34K) with protocols and reagents according to manufacturer's instructions.\nAdipsin levels were measured using and R&D Systems® (Minneapolis Minn.) human complement factor D Quantikine kit (catalogue number DFD00) according to manufacturer's instructions. […] The levels trended back towards baseline during the washout phase."}, "[4]": {"conditions": "ob/ob mice liver, day 6, qPCR, 1 mg/kg QD"}}, "note": "Where two headings read alike, the source gives them in different places."}
{"molecule": "B1", "values": [{"measurement": "EC50", "setting": "[1]; 3T3-L1 adipocytes, 6 hrs, Taqman quantitative real-time PCR, read-out: Glut1 RNA expression EC50", "result": 3.39, "unit": "nM"}, {"measurement": "Glut1 induction in 3T3-L1 adipocytes", "setting": "[1]; 6 hrs", "result": "dose-dependent Glut1 induction"}, {"measurement": "EC50", "setting": "[1]; unconjugated protein, n in brackets, read-out: Glut1 Taqman unconjugated Protein EC50", "result": 2.3, "unit": "nM"}, {"measurement": "EC50", "setting": "[2]", "result": 12, "unit": "nM"}, {"measurement": "GTT* (% AUC of Ctrl)", "setting": "ob/ob mice; 1 mg/kg Qd (FGF21dH protein)", "result": "67 % AUC of Ctrl"}, {"measurement": "Mean fold changes of mRNA expression, FoxA2", "setting": "ob/ob mice; [4]", "result": 1.23, "unit": "fold"}, {"measurement": "Mean fold changes of mRNA expression, MOGAT2", "setting": "ob/ob mice; [4]", "result": 0.37, "unit": "fold"}, {"measurement": "Mean fold changes of mRNA expression, SCD1", "setting": "ob/ob mice; [4]", "result": 0.95, "unit": "fold"}, {"measurement": "Mean Glucose AUC (% of vehicle control)", "setting": "ob/ob mice; ob/ob mice, OGTT day 6, 1 mg/kg QD", "result": "61 % of vehicle control"}, {"measurement": "Body weight change from day −1", "setting": "ob/ob mice; ob/ob mice, day 6, 1 mg/kg QD", "result": 4.7}, {"measurement": "Glucose AUC during OGTT", "setting": "ob/ob mice; ob/ob mice, day 6, 1 mg/kg QD", "result": 67}, {"measurement": "Liver Weight", "setting": "ob/ob mice; ob/ob mice, day 6, 1 mg/kg QD", "result": 1.8, "unit": "g"}, {"measurement": "Triglycerides content in liver", "setting": "ob/ob mice; ob/ob mice, day 6, 1 mg/kg QD", "result": 37.0}, {"measurement": "UCP1 mRNA expression in WAT", "setting": "ob/ob mice; ob/ob mice, day 6, 1 mg/kg QD", "result": 2.6}, {"measurement": "Mean Glucose AUC (% of vehicle control) during OGTT", "setting": "ob/ob mice; ob/ob mice, single SC dose 0.6 mg/kg (FIG. 4A)", "result": "103 % of vehicle control"}, {"measurement": "Cumulative body weight change, mean body weight", "setting": "ob/ob mice; ob/ob mice, single SC dose 0.6 mg/kg (FIG. 5A)", "result": 3.2, "unit": "g"}, {"measurement": "mean liver weight", "setting": "ob/ob mice; ob/ob mice, single SC dose 0.6 mg/kg (FIG. 5B)", "result": 2.4, "unit": "g"}, {"measurement": "Cumulative body weight change, mean body weight", "setting": "ob/ob mice; ob/ob mice, single SC dose 1 mg/kg (FIG. 5A)", "result": 2.5, "unit": "g"}, {"measurement": "mean liver weight", "setting": "ob/ob mice; ob/ob mice, single SC dose 1 mg/kg (FIG. 5B)", "result": 2.2, "unit": "g"}, {"measurement": "Mean Glucose AUC (% of vehicle control) during OGTT", "setting": "ob/ob mice; ob/ob mice, single SC dose 1 mg/kg (FIGS. 4A, 4B)", "result": "74 % of vehicle control"}, {"measurement": "Cumulative body weight change, mean body weight", "setting": "ob/ob mice; ob/ob mice, single dose, dose not printed (FIG. 6A)", "result": 1.9, "unit": "g"}, {"measurement": "mean glucose AUC % during OGTT", "setting": "ob/ob mice; ob/ob mice, single dose, dose not printed (FIG. 6B)", "result": 63, "unit": "%"}, {"measurement": "LDL cholesterol", "setting": "[3]", "result": "significant decrease in LDL cholesterol levels was only observed after 1 week of treatment"}, {"measurement": "non-esterified free fatty acids (FFA)", "setting": "[3]", "result": "significantly increased over the first 2 weeks of treatment"}, {"measurement": "plasma adiponectin", "setting": "[3]", "result": "trended upwards"}, {"measurement": "body weight", "setting": "[3]; 4 weeks, vs baseline", "result": "significant decrease in body weight"}, {"measurement": "plasma fructosamine", "setting": "[3]; after 3 weeks", "result": "significantly reduced"}, {"measurement": "triglycerides (TG)", "setting": "[3]; dosing period", "result": "significant decrease in TG"}, {"measurement": "total ketone bodies (TOTK)", "setting": "[3]; first 3 weeks of treatment", "result": "significantly increased"}, {"measurement": "plasma leptin", "setting": "[3]; not significant", "result": "decreased"}, {"measurement": "plasma C-reactive protein (CRP)", "setting": "[3]; significance only at 1 week washout", "result": "decreased"}]}
